According to article PMC2174279:

How the values were obtained:
[1] = target: Bee1p (1-165) (S. cerevisiae); assay: two-hybrid
[2] = target: Bee1p (1-633) (S. cerevisiae); assay: two-hybrid
Bee1p-HA (S. cerevisiae) = assay: co-IP

LacZ expression (two-hybrid) [1]	LacZ expression (two-hybrid) [2]	percent coimmunoprecipitated (Bee1p-HA (S. cerevisiae))	Binder
144 Miller units	144 Miller units	–	Vrp1p (195-817) (domain or fragment) HMPSVRPAHRSHQRKSSNISLPSVSAPPLPSASLPTHVSNPPQAPPPPPTPTIGLDSKNIKPTDNAVSPPSSEVPAGGLPFLAEINARRSERGAVEGVSSTKIQTENHKSPSQPPLPSSAPPIPTSHAPPLPPTAPPPPSLPNVTSAPKKATSAPAPPPPPLPAAMSSASTNSVKATPVPPTLAPPLPNTTSVPPNKASSMPAPPPPPPPPPGAFSTSSALSASSIPLAPLPPPPPPSVATSVPSAPPPPPTLTTNKPSASSKQSKISSSSSSSAVTPGGPLPFLAEIQKKRDDRFVVGGDTGYTTQDKQEDVIGSSKDDNVRPSPISPSINPPKQSSQNGMSFLDEIESKLHKQTSSNAFNAPPPHTDAMAPPLPPSAPPPPITSLPTPTASGDDHTNDKSETVLGMKKAKAPALPGHVPPPPVPPVLSDDSKNNVPAASLLHDVLPSSNLEKPPSPPVAAAPPLPTFSAPSLPQQSVSTSIPSPPPVAPTLSVRTETESISKNPTKSPPPPPSPSTMDTGTSNSPSKNLKQRLFSTGGSTLQHKHNTHTNQPDVDVGRYTIGGSNSIVGAKSGNERIVIDDSRFKWTNVSQMPKPRPFQNKTKLYPSGKGSSVPLDLTLFT
–	–	5%	Vrp1p-Myc (natural protein) MAGAPAPPPPPPPPALGGSAPKPAKSVMQGRDALLGDIRKGMKLKKAETNDRSAPIVGGGVVSSASGSSGTVSSKGPSMSAPPIPGMGAPQLGDILAGGIPKLKHINNNASTKPSPSASAPPIPGAVPSVAAPPIPNAPLSPAPAVPSIPSSSAPPIPDIPSSAAPPIPIVPSSPAPPLPLSGASAPKVPQNRPHMPSVRPAHRSHQRKSSNISLPSVSAPPLPSASLPTHVSNPPQAPPPPPTPTIGLDSKNIKPTDNAVSPPSSEVPAGGLPFLAEINARRSERGAVEGVSSTKIQTENHKSPSQPPLPSSAPPIPTSHAPPLPPTAPPPPSLPNVTSAPKKATSAPAPPPPPLPAAMSSASTNSVKATPVPPTLAPPLPNTTSVPPNKASSMPAPPPPPPPPPGAFSTSSALSASSIPLAPLPPPPPPSVATSVPSAPPPPPTLTTNKPSASSKQSKISSSSSSSAVTPGGPLPFLAEIQKKRDDRFVVGGDTGYTTQDKQEDVIGSSKDDNVRPSPISPSINPPKQSSQNGMSFLDEIESKLHKQTSSNAFNAPPPHTDAMAPPLPPSAPPPPITSLPTPTASGDDHTNDKSETVLGMKKAKAPALPGHVPPPPVPPVLSDDSKNNVPAASLLHDVLPSSNLEKPPSPPVAAAPPLPTFSAPSLPQQSVSTSIPSPPPVAPTLSVRTETESISKNPTKSPPPPPSPSTMDTGTSNSPSKNLKQRLFSTGGSTLQHKHNTHTNQPDVDVGRYTIGGSNSIVGAKSGNERIVIDDSRFKWTNVSQMPKPRPFQNKTKLYPSGKGSSVPLDLTLFT
–	398 Miller units	–	Myo5p-SH3-AD (1020-1219) (domain or fragment) NKAATRRSVPNPASTLTASQSNARPSPPTAATRATPAATPAAAAMGSGRQANIPPPPPPPPPSSKPKEPMFEAAYDFPGSGSPSELPLKKGDVIYITREEPSGWSLGKLLDGSKEGWVPTAYMKPHSGNNNIPTPPQNRDVPKPVLNSVQHDNTSANVIPAAAQASLGDGLANALAARANKMRLESDDEEANEDEEEDDW
